In article PMC3568127 (2013) one finds IC50 data, which are given here for 3 molecules.

For assay [1], the target named is T1, NRP1 (neuropilin 1) expressed from an adenovirus on DU145 cells (UniProt O14786 22-923). As to the kind of experiment: competition with bt-VEGF-A165 on DU145 cells.
In assay [2] the target is T1, NRP1 (neuropilin 1) expressed from an …. In words: competition with bt-VEGF-A165 on DU145 cells, +BSA.

T1 sequence (O14786 22-923): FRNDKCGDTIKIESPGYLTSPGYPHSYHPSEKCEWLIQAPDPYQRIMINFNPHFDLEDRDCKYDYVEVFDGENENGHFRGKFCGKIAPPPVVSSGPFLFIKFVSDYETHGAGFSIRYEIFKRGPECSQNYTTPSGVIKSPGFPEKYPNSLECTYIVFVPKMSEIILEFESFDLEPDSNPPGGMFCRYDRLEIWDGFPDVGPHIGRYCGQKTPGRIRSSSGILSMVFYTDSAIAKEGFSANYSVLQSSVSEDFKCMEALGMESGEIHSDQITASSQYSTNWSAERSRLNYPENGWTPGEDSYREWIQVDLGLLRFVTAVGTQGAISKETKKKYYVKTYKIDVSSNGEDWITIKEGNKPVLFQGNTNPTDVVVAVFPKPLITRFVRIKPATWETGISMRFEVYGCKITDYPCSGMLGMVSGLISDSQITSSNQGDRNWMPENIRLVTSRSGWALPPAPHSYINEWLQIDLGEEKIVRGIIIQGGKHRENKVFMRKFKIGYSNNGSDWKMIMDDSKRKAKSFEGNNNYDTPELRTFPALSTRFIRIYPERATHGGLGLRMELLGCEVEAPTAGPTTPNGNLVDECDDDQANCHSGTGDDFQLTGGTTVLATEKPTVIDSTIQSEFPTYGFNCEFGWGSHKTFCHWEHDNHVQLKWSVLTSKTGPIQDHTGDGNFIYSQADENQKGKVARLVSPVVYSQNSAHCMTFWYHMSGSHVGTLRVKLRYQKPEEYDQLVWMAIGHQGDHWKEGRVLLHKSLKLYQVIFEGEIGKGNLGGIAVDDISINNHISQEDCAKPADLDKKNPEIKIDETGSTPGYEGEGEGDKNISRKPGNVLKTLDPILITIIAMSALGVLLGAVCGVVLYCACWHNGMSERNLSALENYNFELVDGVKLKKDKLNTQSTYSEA

B1: VEGF-A165 (R&D Systems), unlabelled (ligand)
chain: APMAEGGGQNHHEVVKFMDVYQRSYCHPIETLVDIFQEYPDEIEYIFKPSCVPLMRCGGCCNDEGLECVPTEESNITMQIMRIKPHQGQHIGEMSFLQHNKCECRPKKDRARQENPCGPCSERRKHLFVQDPQTCKCSCKNTDSRCKARQLELNERTCRCDKPRR
modifications: Disulfide-linked homodimer. Mature VEGF165 (equals P15692-4 residues 27-191, 165 aa) is built from the 395-aa displayed form by removing exon 6a, with K to N at the splice junction. Limits follow the standard mature VEGF165; the paper does not print them.
B1: in assay [1], the IC50 is 0.8 nM. This counts as sub-nanomolar. Take PCGPCSERRKHLFVQDPQTCKCSCKNTDSRCKARQLELNERTCRCDKPRR (domain or fragment): the figures for the IC50 in assay [1] and in assay [2] were 161 nM and 152 nM, respectively. As to PCGPCSERRKHLFVQDPQTCKCSCKNTDSRCKARQLELNERTCRCDKPRR (domain or fragment) [VEGF-A165-HBD with the His6-tag removed], the IC50 in assay [1] worked out at 107 nM; in assay [2], 229 nM.

Usually IC50 stands for the concentration needed to halve the response being measured. Read a high IC50 as weaker potency in that assay.
